{"source": "patent US20060222661A1", "target": "human CD81 (on Huh-7 cells and human primary hepatocytes) (human) (UniProt P60033)", "sequence (P60033 whole entry)": "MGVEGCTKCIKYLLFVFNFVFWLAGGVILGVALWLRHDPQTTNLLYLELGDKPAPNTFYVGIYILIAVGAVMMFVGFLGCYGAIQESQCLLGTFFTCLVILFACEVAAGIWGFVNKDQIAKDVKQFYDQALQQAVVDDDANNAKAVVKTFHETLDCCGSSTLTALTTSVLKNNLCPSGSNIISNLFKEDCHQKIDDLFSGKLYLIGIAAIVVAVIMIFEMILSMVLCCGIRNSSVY", "test": "cell-based or functional assay"}
{"substance": "JS-81 anti-CD81 monoclonal antibody (Pharmingen)", "values": [{"measurement": "inhibition of infection by HCVpp of genotypes 1a and 1b, target cells pre-incubated with 30 µg/ml antibody", "result": "> 90", "unit": "%"}]}
